Here are results for one molecule from article PMC11749100, “Blockade of Arf1-mediated lipid metabolism in cancers promotes tumor infiltration of cytotoxic T cells via the LPE-PPARγ-NF-κB-CCL5 pathway”.

The target in one series is PPARγ (mouse, UniProt P37238 1-505). The experiment in a line: EMSA; Beyotime GS009 EMSA kit; 1 uL protein + 2 uL DNA, 20 min at room temperature; 4% non-denaturing PAGE; buffer, salt and pH not stated. The settings on record: protein: recombinant; blunt.
A further series concerns the target p65 (NF-kB) (UniProt Q04207 1-549). The description is as above. The settings on record: protein: recombinant; tags: His (pET-21b(+)); blunt.

Sequence of p65 (NF-kB) (Q04207 whole entry): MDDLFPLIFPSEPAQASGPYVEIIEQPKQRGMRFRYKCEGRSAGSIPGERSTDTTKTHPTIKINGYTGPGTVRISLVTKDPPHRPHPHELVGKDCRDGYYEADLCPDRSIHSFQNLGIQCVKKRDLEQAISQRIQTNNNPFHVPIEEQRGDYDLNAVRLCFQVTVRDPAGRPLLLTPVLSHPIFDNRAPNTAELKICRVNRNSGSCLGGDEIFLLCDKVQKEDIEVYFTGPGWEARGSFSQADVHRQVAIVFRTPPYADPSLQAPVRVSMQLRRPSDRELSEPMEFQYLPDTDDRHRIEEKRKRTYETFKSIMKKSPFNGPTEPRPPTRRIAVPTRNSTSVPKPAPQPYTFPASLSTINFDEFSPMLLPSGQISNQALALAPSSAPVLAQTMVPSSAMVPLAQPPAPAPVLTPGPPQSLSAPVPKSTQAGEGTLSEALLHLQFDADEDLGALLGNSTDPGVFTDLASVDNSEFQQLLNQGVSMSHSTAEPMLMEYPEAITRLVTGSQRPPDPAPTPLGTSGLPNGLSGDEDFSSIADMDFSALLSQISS

B1: CCL5 promoter probe (dsDNA)
DNA 1: GTCTTTTGTGGAAACTCCCCAAG
DNA 2: CTTGGGGAGTTTCCACAAAAGAC
Take B1: the binding result is reported as “no binding” with PPARγ and “binds” with p65 (NF-kB).
